Measured values taken from patent publication US20140100172A1.

What was measured:
[1] = molecular target: human chemokine receptor type 4 (CXCR4) (human) (UniProt P61073); experiment: radioligand competition binding; CMS5/CXCR4 cells
[2] = molecular target: human chemokine receptor type 4 (CXCR4) (human) (UniProt P61073); experiment: radioligand competition binding; Jurkat cells
[3] = molecular target: human chemokine receptor type 4 (CXCR4) (human) (UniProt P61073); experiment: radioligand competition binding; tracer 125I-CPCR4; Jurkat; parameters: unit not given here
[4] = molecular target: human chemokine receptor type 4 (CXCR4) (human) (UniProt P61073); experiment: radioligand competition binding; tracer 125I-SDF-1α; CMS5/CXCR4; site (1); parameters: unit not given here
[5] = molecular target: human chemokine receptor type 4 (CXCR4) (human) (UniProt P61073); experiment: radioligand competition binding; tracer 125I-CPCR4; CMS5/CXCR4; parameters: unit not given here
[6] = molecular target: human chemokine receptor type 4 (CXCR4) (human) (UniProt P61073); experiment: radioligand competition binding; tracer 125I-CPCR4
[7] = molecular target: human chemokine receptor type 4 (CXCR4) (human) (UniProt P61073); experiment: radioligand competition binding; tracer 125I-SDF-1α
[8] = molecular target: human chemokine receptor type 4 (CXCR4) (human) (UniProt P61073); experiment: radioligand competition binding; tracer 125I-SDF-1α; CMS5/CXCR4; site (2); parameters: unit not given here
[9] = molecular target: human chemokine receptor type 4 (CXCR4) (human) (UniProt P61073); experiment: radioligand competition binding; tracer 125I-CPCR4; Jurkat; site (1); parameters: unit not given here
[10] = molecular target: human chemokine receptor type 4 (CXCR4) (human) (UniProt P61073); experiment: radioligand competition binding; tracer 125I-CPCR4; CMS5/CXCR4; site (2); parameters: unit not given here
[11] = molecular target: human chemokine receptor type 4 (CXCR4) (human) (UniProt P61073); experiment: radioligand competition binding; tracer 125I-CPCR4; CMS5/CXCR4; site (1); parameters: unit not given here
[12] = molecular target: human chemokine receptor type 4 (CXCR4) (human) (UniProt P61073); experiment: radioligand competition binding; tracer 125I-CPCR4; Jurkat; site (2); parameters: unit not given here
[13] = molecular target: human chemokine receptor type 4 (CXCR4) (human) (UniProt P61073); experiment: competition with 125I-CPCR4 tracer on CXCR4-expressing cells

Chain of human chemokine receptor type 4 (CXCR4) (human) (P61073 whole entry): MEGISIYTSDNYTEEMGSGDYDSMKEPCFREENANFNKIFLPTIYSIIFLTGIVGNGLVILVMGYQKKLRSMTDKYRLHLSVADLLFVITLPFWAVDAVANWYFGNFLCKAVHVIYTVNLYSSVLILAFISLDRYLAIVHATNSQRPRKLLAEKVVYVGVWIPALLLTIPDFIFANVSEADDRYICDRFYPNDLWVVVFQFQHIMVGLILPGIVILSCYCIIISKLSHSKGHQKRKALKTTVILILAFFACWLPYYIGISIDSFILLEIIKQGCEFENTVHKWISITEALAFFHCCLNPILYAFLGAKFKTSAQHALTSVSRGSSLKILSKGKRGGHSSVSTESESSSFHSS

## 125I-CPCR4
[1]
  IC50: 6.5 nM
[2]
  IC50: 4 nM

## CPCR4, cyclo[D-Tyr-Arg-Arg-Nal-Gly]
[3]
  IC50: 3.7 ?
[4]
  IC50: 0.01 ?
[5]
  IC50: 6.8 ?
[6]
  IC50: 3.8 nM
[7]
  IC50: 5.5 nM
[8]
  IC50: 6.9 ?

## Iodo-CPCR4
[9]
  IC50: 0.01 ?
[4]
  IC50: 0.02 ?
[10]
  IC50: 3.5 ?
[11]
  IC50: 0.01 ?
[8]
  IC50: 8.8 ?
[12]
  IC50: 4.6 ?

## cyc[D-Tyr-(Me)D-Orn(Me, FB)-Arg-Nal-Gly] (peptide)
[13]
  IC50: 59 nM

## cyc[D-Tyr-D-Orn(FB)-Arg-Nal-Gly] (peptide)
[13]
  IC50: 86 nM

## cyc[D-Tyr-Orn(Ahx)-Arg-Nal-Gly] (peptide)
[13]
  IC50: 70 nM

## cyc[D-Tyr-Orn(Bz, FB)-Arg-Nal-Gly] (peptide)
[13]
  IC50: 100 nM

## cyc[D-Tyr-Orn(FB)-Arg-Nal-Gly] (peptide)
[13]
  IC50: 11 nM

## cyc[Nal-Gly-D-Tyr-Arg-Orn] (peptide)
[13]
  IC50: 1000 nM

## cyc[Nal-Gly-D-Tyr-Orn-Arg] (peptide)
[13]
  IC50: 9 nM
